Residue numbers refer to the chain shown, from its start. Names and notes keep the numbering of the source.
B1: I283T-P284D-N287P-S322T-N388M-R422F-C430N-L432F-L434W-S436N-dG462-A463T (protein)
chain: MFLKSLREQINLLKRQGDLRIINRPVDSYLEAAAIIRRSTETKAPVPLMTNIKGYPGCSIVGGLAALSSNPEYPLSRVAMSLGLSTTASAQSIVQYLIDGLKKTPYLPVEIDSNSAPCKQNILRGEDASLAHFPIPQVHQHDGNRYVNTWGVFIVESPDGQWCNWSIQRVQYLNDRQMIALVFPSQHISDIWEEWVKIGKPMPYALVQGCEPIVPYIAGLPLLERNVNEAEYIGALYGKGIEVVKCETHDLRVPASSEVVIEGYFAITREGVEGPFGEFAGYTDNEPSLQPILSITAISWQDDPIWPVVAEGKPVDEYHTCTGIGDAAAIQNVLLTANLPVSFVWVPLYSACHLMIVSINRHWRQTHPDLTSEQLTKKVGDVIHQTRMSIKLPKIVVLDDDVDPADTESLLWALATRIHPEFKRYFYESNIFPWLNCYSEEERHNRKGKRVIIDALLPENHGTISSFDYAYPDDIKQRVLMHWETDFSHD
B2: I283T-P284D-N287P-S322T-N388M-C430N-L432F-L434W-S436N-H461T-dG462-A463T (protein)
chain: B1 chain with F422R, H461T
B3: I283T-P284D-N287P-S322T-N388M-E421V-R422F-C430N-L432F-L434W-S436N-H461T-dG462 (protein)
chain: B1 chain with E421V, H461T, T463A
B4: I283T-P284D-N287P-S322T-N388M-E421V-R422F-C430N-L432F-L434W-S436N-H461V-dG462 (protein)
chain: B1 chain with E421V, H461V, T463A
B5: I283T-P284D-N287P-S322T-N388M-E421V-R422F-C430N-L432F-L434W-S436N-dG462-A463T (protein)
chain: B1 chain with E421V
B6: I283T-P284D-N287P-S322T-N388M-E421V-C430N-L432F-L434W-S436N-H461T-dG462-A463T (protein)
chain: B1 chain with E421V, F422R, H461T
B7: N285M-N388M-K394R-C430N-L432F-L434W-S436N (protein)
chain: B1 chain with T283I, D284P, N285M, P287N, T322S, K394R, F422R, T463A
B8: I283T-P284D-N287P-S322T-N388M-E421V-C430N-L432F-L434W-S436N-H461V-dG462-A463T (protein)
chain: B1 chain with E421V, F422R, H461V
B9: I283T-P284D-N287P-S322T-N388M-R422F-C430N-L432F-L434W-S436N-H461T-dG462-A463T (protein)
chain: B1 chain with H461T
B10: I283T-P284D-N287P-S322T-N388M-R422F-C430N-L432F-L434W-S436N-H461V-dG462-A463T (protein)
chain: B1 chain with H461V
B11: I283T-P284D-N287P-S322T-N388M-E421V-R422F-C430N-L432F-L434W-S436N-H461T-dG462-A463T (protein)
chain: B1 chain with E421V, H461T
B12: I283T-P284D-N287P-S322T-N388M-E421V-R422F-C430N-L432F-L434W-S436N-H461V-dG462-A463T (protein)
chain: B1 chain with E421V, H461V
B13: I283T-P284D-N287P-S322T-N388M-E421V-C430N-L432F-L434W-S436N-dG462 (protein)
chain: B1 chain with E421V, F422R, T463A
B14: I283T-P284D-N287P-S322T-N388M-R422F-C430N-L432F-L434W-S436N-dG462 (protein)
chain: B1 chain with T463A
B15: I283T-N285P-N287T-Q290E-S322T-N388M-K394R-C430A-L432F-L434W-S436N-dH461 (protein)
chain: B1 chain with D284P, N285P, P287T, Q290E, K394R, F422R, N430A, T463A
B16: I283T-N285P-N287T-Q290E-S322T-N388M-K394R-C430A-L432F-L434W-S436N-dG462 (protein)
chain: B1 chain with D284P, N285P, P287T, Q290E, K394R, F422R, N430A, T463A
B17: I283T-N285P-N287T-Q290E-S322T-N388M-K394R-C430A-L432F-L434W-S436N-dA463 (protein)
chain: B1 chain with D284P, N285P, P287T, Q290E, K394R, F422R, N430A, T463A
B18: N287I-N388M-K394R-C430N-L432F-L434W-S436N (protein)
chain: B1 chain with T283I, D284P, P287I, T322S, K394R, F422R, T463A
B19: I283T-P284D-i284aP-N287P-S322T-N388M-C430N-L432F-L434W-S436N-dG462 (protein)
chain: B1 chain with F422R, T463A
B20: I283T-P284D-N285M-N287T-S322T-N388M-K394R-C430A-L432F-L434W-S436N-C437M-G462P-A463P (protein)
chain: B1 chain with N285M, P287T, K394R, F422R, N430A, C437M, G462P, T463P
B21: I283T-P284D-N285M-N287T-S322T-N388M-K394R-C430A-L432F-L434W-S436N-G462P-A463P-I464P (protein)
chain: B1 chain with N285M, P287T, K394R, F422R, N430A, G462P, T463P, I464P
B22: I283T-P284D-N285M-N287T-L289H-S322T-N388M-K394R-C430A-L432F-L434W-S436N-G462P-A463P (protein)
chain: B1 chain with N285M, P287T, L289H, K394R, F422R, N430A, G462P, T463P
B23: I283T-P284D-N285I-N287T-i287aS-S322T-N388M-K394R-C430A-L432F-L434W-S436N-G462P-A463P (protein)
chain: B1 chain with N285I, P287T, K394R, F422R, N430A, G462P, T463P
B24: I283T-P284D-N285M-N287T-S322T-N388M-K394R-C430A-L432F-L434W-S436N-G462T-A463P (protein)
chain: B1 chain with N285M, P287T, K394R, F422R, N430A, G462T, T463P
B25: I283T-N285P-N287T-Q290E-S322T-N388M-K394R-dR422-C430A-L432F-L434W-S436N-dG462 (protein)
chain: B1 chain with D284P, N285P, P287T, Q290E, K394R, F422R, N430A, T463A
B26: L223Y-I283T-N285P-N287T-Q290E-S322T-N388M-K394R-K423G-C430A-L432F-L434W-S436N-dG462 (protein)
chain: B1 chain with L223Y, D284P, N285P, P287T, Q290E, K394R, F422R, K423G, N430A, T463A
B27: I283T-P284D-i284aP-N287P-S322T-N388M-E421V-C430N-L432F-L434W-S436N-dG462-A463T (protein)
chain: B1 chain with E421V, F422R
B28: I283T-P284D-i284aP-N287P-S322T-N388M-E421V-C430N-L432F-L434W-S436N-H461T-dG462-A463T (protein)
chain: B1 chain with E421V, F422R, H461T
B29: N287K-N388M-K394R-C430N-L432F-L434W-S436N (protein)
chain: B1 chain with T283I, D284P, P287K, T322S, K394R, F422R, T463A
B30: I283T-P284D-i284aP-N287P-S322T-N388M-E421V-C430N-L432F-L434W-S436N-H461V-dG462-A463T (protein)
chain: B1 chain with E421V, F422R, H461V
B31: I283T-P284D-i284aP-N287P-S322T-N388M-E421V-R422F-C430N-L432F-L434W-S436N-dG462-A463T (protein)
chain: B1 chain with E421V
B32: I283T-P284D-i284aP-N287P-S322T-N388M-E421V-R422F-C430N-L432F-L434W-S436N-H461T-dG462-A463T (protein)
chain: B1 chain with E421V, H461T
B33: I283T-P284D-i284aP-N287P-S322T-N388M-E421V-R422F-C430N-L432F-L434W-S436N-H461T-dG462 (protein)
chain: B1 chain with E421V, H461T, T463A

System: 3-methylcrotonic acid
Type: biochemical, Yersinia frederiksenii
Parameters: key: “+” representing a low increase in activity; “++++” representing a high increase in activity

Molecule	Activity relative to WT
B1	++++
B2	++++
B3	++++
B4	++++
B5	++++
B6	++++
B7	+
B8	++++
B9	++++
B10	++++
B11	++++
B12	++++
B13	++++
B14	++++
B15	++++
B16	++++
B17	++++

Molecule	Activity relative to WT
B18	+
B19	++++
B20	++++
B21	++++
B22	++++
B23	++++
B24	++++
B25	++++
B26	++++
B27	++++
B28	++++
B29	+
B30	++++
B31	++++
B32	++++
B33	++++

From patent US20250327097A1, “ORGANISMS PRODUCING LESS CROTONIC ACID” (Global Bioenergies, priority 2021, published 2025)
